Experiments:
[1] = test system: MuA transposase in cleaved-donor complex (CDC, WT transpososome) (bacteriophage Mu); assay: fluorescence anisotropy; conditions: Mg2+, CDC with 3'ddA Mu ends, Anisotropy: purified CDCs diluted in reaction buffer with MgCl2 (+/- DMSO; concentrations, salt and pH not in material), 6 nM Atto565 target DNA, 1 h, room …
[2] = test system: MuA delta domain III (catalytic subunits of delta domain III CDC);SinMu chimera (non-catalytic subunits) (bacteriophage Mu;bacteriophage Mu; Sin recombinase (organism not stated)); assay: fluorescence anisotropy; conditions: Mg2+, DMSO; CDC with 3'ddA Mu ends; single G:G mismatch at center; Anisotropy: purified CDCs diluted in reaction buffer with MgCl2 (+/- DMSO; concentrations, salt and pH not in material), 6 nM Atto565 target DNA, 1 h, room …

Row | Substance | Kd ([1]; DMSO, Hill coefficient 2.6, single G:G mismatch at center) [nM] | Kd ([1]; no DMSO, Hill coefficient 3.3, single G:G mismatch at center) [nM] | Kd [2] [nM] | Kd ([1]; DMSO) [nM]
1 | target DNA with central G:G mismatch, 35 bp | 15 | 15 | 38 | –
2 | target DNA, fully base paired, 35 bp | – | – | – | 29
